Test results published in patent US5149780A, “Peptides and antibodies that inhibit integrin-ligand binding” (The Scripps Research Institute, priority 1988, dated 1992).

Columns and labels:
[1] = target: T1, beta subunit (GPIIIa) (Homo sapiens, UniProt P05106+P08514); test: Chemical crosslinking of 125I-Fn-7 to platelets with BS3, SDS-PAGE and autoradiography; format: binding; settings: thrombin-stimulated platelets, 20 μM peptide, 45 min at 22° C., BS3 0.2 mM
T1 construct: endogenous in cells; host or cells: human platelets (thrombin-stimulated or nonstimulated), gel-filtered from fresh blood
Method: FIG. 2 illustrates the results of the crosslinking of an RGD peptide to discrete sites in the beta subunit (GPIIIa) of an Integrin adhesion receptor. The ^125 I-labeled RGD peptide, Fn-7 (20 μM), was bound to platelet (6×10^8 /ml) for 45 min at 22° C., and crosslinked with BS^3 (0.2 mM). The fragmentation patterns after proteolysis were analyzed by SDS-PAGE [Laemmli, Nature. 227:680 (1970)] and autoradiography. […] Lanes 2-7, GPIIIa:Fn-7 bands were excised from gels, subjected to proteolysis and then analyzed by SDS-PAGE (15% gels, reducing conditions). For lanes 2-5, GPIIIA:Fn-7 bands were excised and digestions with V-8 protease were performed within the gel slices as described in Cleveland et al., J. Biol. Chem. 252:1102 (1977).
Platelets were isolated from fresh human blood collected into acid/citrate/dextrose by differential centrifugation followed by gel filtration on Sepharose 2B in divalent ion-free Tyrode's buffer, pH 7.3, containing 0.1% bovine serum albumin. See, Marguerie et al., J. Biol. Chem. 225:154-161 (1980). […]
The cell-bound ligand was recovered by centrifugation through 20% sucrose, and the cells were extracted in PBS containing 1% Nonidet P40 and 10 mM N-ethylmaleimide (Sigma). […] The cross-linked samples were analyzed by electrophoresis (SDS-PAGE) on polyacrylamide vertical slab gels in the buffer system of Laemmli, Nature, […] (1970). […]

[2] = target: T2, alpha subunit (GPIIb) (Homo sapiens, UniProt P05106+P08514); test: as above; format: binding; settings: thrombin-stimulated platelets, 20 μM peptide, 45 min at 22° C., BS3 0.2 mM
T2 construct: The radiolabeled peptide was then added to 6×10^8 cells/ml stimulated or nonstimulated platelets; endogenous in cells; host or cells: human platelets (thrombin-stimulated), gel-filtered from fresh blood

crosslinking of 125I-Fn-7 to the beta subunit (GPIIIa) [1]: predominance
crosslinking of 125I-Fn-7 to the alpha subunit (GPIIb) [2]: more minor crosslinking
Sequence: KYGRRGDS [Fn-7, RGD-peptide with a lysine to facilitate crosslinking and a tyrosine for radioiodination]
